Source: PMC9463231 (2022)

Key:
Assay in all cases: SPR
biotinylated mouse FcγRI = target: T1, biotinylated mouse FcγRI (mouse, UniProt P26151 25-297, biotin)
T1 chain: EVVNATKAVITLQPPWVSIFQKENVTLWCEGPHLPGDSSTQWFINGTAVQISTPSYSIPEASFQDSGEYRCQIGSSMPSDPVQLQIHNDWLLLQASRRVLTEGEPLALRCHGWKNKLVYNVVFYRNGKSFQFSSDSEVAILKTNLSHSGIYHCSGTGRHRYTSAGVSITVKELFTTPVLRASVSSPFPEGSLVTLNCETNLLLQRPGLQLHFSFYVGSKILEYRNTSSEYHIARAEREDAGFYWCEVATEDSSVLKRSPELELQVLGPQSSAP

[1] = target: T2, biotinylated mouse FcγRIV (mouse, UniProt A0A0B4J1G0 21-203, biotin)
T2 chain: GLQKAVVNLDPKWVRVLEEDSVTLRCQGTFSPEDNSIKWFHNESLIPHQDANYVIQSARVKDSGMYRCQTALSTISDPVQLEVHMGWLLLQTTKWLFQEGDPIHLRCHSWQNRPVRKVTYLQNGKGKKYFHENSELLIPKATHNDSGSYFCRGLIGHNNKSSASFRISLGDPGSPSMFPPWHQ

His-tagged mouse FcγRIII = target: T3, His-tagged mouse FcγRIII (mouse, UniProt P08508 31-261)
T3 chain: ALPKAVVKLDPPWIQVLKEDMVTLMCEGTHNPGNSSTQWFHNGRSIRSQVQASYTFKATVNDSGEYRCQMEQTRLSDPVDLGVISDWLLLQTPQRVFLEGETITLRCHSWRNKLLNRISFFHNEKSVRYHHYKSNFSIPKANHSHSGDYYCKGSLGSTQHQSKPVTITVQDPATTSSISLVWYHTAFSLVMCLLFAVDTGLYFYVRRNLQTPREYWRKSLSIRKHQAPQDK

Kd (biotinylated mouse FcγRI): 85.8 nM
Kd [1]: 388 nM
Kd (His-tagged mouse FcγRIII): 3690 nM
B1: Ipilimumab mIgG2a wildtype (anti-human CTLA-4 mIgG2a with an intact Fc domain) (antibody)
chain 1: QVQLVESGGGVVQPGRSLRLSCAASGFTFSSYTMHWVRQAPGKGLEWVTFISYDGNNKYYADSVKGRFTISRDNSKNTLYLQMNSLRAEDTAIYYCARTGWLGPFDYWGQGTLVTVSS
chain 2: not shown
